# B1: hSARM1 (residues 28–724), sample for cryo-EM (enzyme, human, UniProt Q6SZW1 28-724, looked up)
# chain: LAVPGPDGGGGTGPWWAAGGRGPREVSPGAGTEVQDALERALPELQQALSALKQAGGARAVGAGLAEVFQLVEEAWLLPAVGREVAQGLCDAIRLDGGLDLLLRLLQAPELETRVQAARLLEQILVAENRDRVARIGLGVILNLAKEREPVELARSVAGILEHMFKHSEETCQRLVAAGGLDAVLYWCRRTDPALLRHCALALGNCALHGGQAVQRRMVEKRAAEWLFPLAFSKEDELLRLHACLAVAVLATNKEVEREVERSGTLALVEPLVASLDPGRFARCLVDASDTSQGRGPDDLQRLVPLLDSNRLEAQCIGAFYLCAEAAIKSLQGKTKVFSDIGAIQSLKRLVSYSTNGTKSALAKRALRLLGEEVPRPILPSVPSWKEAEVQTWLQQIGFSKYCESFREQQVDGDLLLRLTEEELQTDLGMKSGITRKRFFRELTELKTFANYSTCDRSNLADWLGSLDPRFRQYTYGLVSCGLDRSLLHRVSEQQLLEDCGIHLGVHRARILTAAREMLHSPLPCTGGKPSGDTPDVFISYRRNSGSQLASLLKVHLQLHGFSVFIDVEKLEAGKFEDKLIQSVMGARNFVLVLSPGALDKCMQDHDCKDWVHKEIVTALSCGKNIVPIIDGFEWPEPQVLPEDMQAVLTFNGIKWSHEYQEATIEKIIRFLQGRSSRDSSAGSDTSLEGAAPMGPT
# Target: the molecule itself
# Experiment: cryo-EM structure
protein,measurement,value
B1,stoichiometry N,8
